# Changes are numbered by the printed parent chain.
# T1: BMP-9, Q9UK05
# T1 chain: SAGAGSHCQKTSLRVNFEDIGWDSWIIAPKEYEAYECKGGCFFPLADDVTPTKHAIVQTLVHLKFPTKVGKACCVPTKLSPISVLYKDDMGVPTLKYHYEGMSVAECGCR
# T2: Activin B (UniProt P09529 293-407)
# T2 sequence (looked up): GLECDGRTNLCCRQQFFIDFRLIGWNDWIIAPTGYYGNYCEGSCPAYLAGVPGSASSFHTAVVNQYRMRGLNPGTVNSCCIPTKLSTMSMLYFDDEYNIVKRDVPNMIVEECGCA
# T3: Activin A (UniProt P08476 311-426)
# T3 sequence (looked up): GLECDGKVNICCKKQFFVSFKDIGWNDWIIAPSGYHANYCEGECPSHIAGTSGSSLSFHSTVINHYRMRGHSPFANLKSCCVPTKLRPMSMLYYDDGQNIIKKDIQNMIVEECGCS
# B1: ActRIIB/A variant (SEQ ID NO: 2)-Fc (Fc fusion, not shown: a dimerising Fc or GST)
# chain: GRGEAETRECIFYNANWEKDRTNQSGLEPCYGDQDKRRHCFASWKNSSGTIELVKQGCWLDDINCYDRQECVAKKDSPEVYFCCCEGNFCNERFTHLPEAGGPEVTYEPPPTAPT
# notes: Engineered variant of the human ActRIIB extracellular portion; expressed transiently in HEK293 and Protein A purified (SPR); conditioned media in the reporter assay; also called ActRIIB/A-Fc
# B2: ActRIIB (SEQ ID NO: 17)-Fc (Fc fusion, not shown: a dimerising Fc or GST)
# chain: GRGEAETRECIYYNANWELERTNQSGLERCEGEQDKRLHCYASWRNSSGTIELVKKGCWLDDFNCYDRQECVATEENPQVYFCCCEGNFCNERFTHLPEAGGPEVTYEPPPTAPT
# notes: Recombinant wild-type extracellular ActRIIB-Fc; also called ActRIIB-Fc
# B3: ActRIIB 2.10 variant (SEQ ID NO: 13)-Fc (Fc fusion, not shown: a dimerising Fc or GST)
# chain: B2 chain with I11L, L27V, Q34K, T50S, I51L, L53I, Q69D, E70T, F89M
# notes: Engineered variant of the human ActRIIB extracellular portion; also called ActRIIB variant 2.10-hFc
# B4: ActRIIB 2.09 variant (SEQ ID NO: 12)-Fc (Fc fusion, not shown: a dimerising Fc or GST)
# chain: B2 chain with I11L, L27V, Q34K, T50S, I51L, L53I, Q69T, E70D, F89M
# notes: Engineered variant of the human ActRIIB extracellular portion; also called ActRIIB variant 2.09-hFc
# B5: ActRIIBΔ9 variant (SEQ ID NO: 3)-Fc (Fc fusion, not shown: a dimerising Fc or GST)
# chain: B2 chain with E20D, F63I, E75K
# notes: Engineered variant of the human ActRIIB extracellular portion
# B6: ActRIIB 2.12 variant (SEQ ID NO: 15)-Fc (Fc fusion, not shown: a dimerising Fc or GST)
# chain: B2 chain with I11L, L27V, Q34K, T50S, I51L, L53I, Q69D, E70T, E75K, F89M
# notes: Engineered variant of the human ActRIIB extracellular portion; recombinant protein
# B7: ActRIIB 2.11 variant (SEQ ID NO: 14)-Fc (Fc fusion, not shown: a dimerising Fc or GST)
# chain: B2 chain with I11L, L27V, Q34K, T50S, I51L, L53I, Q69T, E70D, E75K, F89M
# notes: as for B6
# B8: ActRIIB 2.06 variant (SEQ ID NO: 9)-Fc (Fc fusion, not shown: a dimerising Fc or GST)
# chain: B1 chain with F12Y, K19L, D20E, P29R, Y31E, D33E, R38L, I63F
# notes: Engineered variant of the human ActRIIB extracellular portion; recombinant protein; also called ActRIIB variant 2.06-hFc
# B9: growth differentiation factor 11 (GDF11) (ligand, UniProt O95390 299-407, looked up)
# chain: NLGLDCDEHSSESRCCRYPLTVDFEAFGWDWIIAPKRYKANYCSGQCEYMFMQKYPHTHLVQQANPRGSAGPCCTPTKMSPINMLYFNDKQQIIYGKIPGMVVDRCGCS
# B10: BMP-9 (ligand, UniProt Q9UK05 320-429, looked up)
# chain: T1 chain
# notes: also called bone morphogenetic protein 9
# B11: ActRIIB 2.05 variant (SEQ ID NO: 8)-Fc (Fc fusion, not shown: a dimerising Fc or GST)
# chain: B2 chain with E31Y, E33D, Q34K, T74K, E75K, E76D, N77S, Q79E
# notes: as for B5
# Molecular target: T1, BMP-9, Q9UK05
# Assay: SPR (Biacore 3000), Fc fusion captured, ligand in solution
# Settings: remark: other sources report otherwise
row,Kd [nM],Binder
1,88,B1

# Molecular target: T2, Activin B
# Assay: as above
# Settings: not given
# Source text: (§1) The GE Biacore 3000 was used to measure the kinetics of the interactions between the ActRIIB-Fc variants and the ligands Activin A, Activin B, growth differentiation factor 11 (GDF11), and BMP-9. […] All other ActRIIB-Fc variants were expressed by transient expression in HEK293 cells and purified from the conditioned media using Protein-A Sepharose chromatography. Flow cells 1-4 were immobilized with anti-human/anti-mouse capture antibodies from GE using the amine coupling kit. The ActRII-Fc proteins were then captured on the chip in flow cells 2-4, with flow cell 1 being left empty as a reference cell to measure and subtract any nonspecific binding. HBS-EP+ buffer from GE Healthcare™ was used as a running buffer. Each ligand was run in a duplicate concentration series at 40 μl/min to avoid mass transport effects. All data was collected on a CM-5 chip except for GDF-11, which used CM-4. The data was analyzed using Scrubber2 by BioLogic™ Software to calculate the KD of each interaction (Table 4).
Kd [nM],binding result,Binder
0.023,–,B2
0.28,–,B3
0.16,–,B4
400,–,B5
0.16,–,B6
0.37,–,B7
0.1,–,B8
–,no binding,B1

# Molecular target: B9
# Assay: as above
# Settings: not given
# Source text: as §1
Kd [nM],binding result,Binder
530,–,B5
0.13,–,B6
0.24,–,B7
0.027,–,B8
–,no binding,B1

# Molecular target: B2
# Assay: as above
# Settings: not given
# Source text: as §1
row,Kd [nM],Binder
1,0.12,B9
2,0.28,B10

# Molecular target: T3, Activin A
# Assay: as above
# Settings: not given
# Source text: as §1
Kd [nM],binding result,Binder
0.063,–,B2
0.45,–,B3
0.1,–,B4
390,–,B5
0.14,–,B6
0.78,–,B7
0.053,–,B8
–,no binding,B1

# Molecular target: B10
# Assay: as above
# Settings: not given
# Source text: as §1
Kd [nM],binding result,Binder
1.7,–,B3
0.44,–,B4
28,–,B5
–,no binding,B11
31,–,B6
2.7,–,B7
0.3,–,B8
